Results on 5 variants are retold here after IntAct's records for PubMed 26387864.

The chains are these.
B1: Calcium uptake protein 1, mitochondrial (Homo sapiens), Q9BPX6 (parent)
chain: MFRLNSLSALAELAVGSRWYHGGSQPIQIRRRLMMVAFLGASAVTASTGLLWKRAHAESPPCVDNLKSDIGDKGKNKDEGDVCNHEKKTADLAPHPEEKKKKRSGFRDRKVMEYENRIRAYSTPDKIFRYFATLKVISEPGEAEVFMTPEDFVRSITPNEKQPEHLGLDQYIIKRFDGKKISQEREKFADEGSIFYTLGECGLISFSDYIFLTTVLSTPQRNFEIAFKMFDLNGDGEVDMEEFEQVQSIIRSQTSMGMRHRDRPTTGNTLKSGLCSALTTYFFGADLKGKLTIKNFLEFQRKLQHDVLKLEFERHDPVDGRITERQFGGMLLAYSGVQSKKLTAMQRQLKKHFKEGKGLTFQEVENFFTFLKNINDVDTALSFYHMAGASLDKVTMQQVARTVAKVELSDHVCDVVFALFDCDGNGELSNKEFVSIMKQRLMRGLEKPKDMGFTRLMQAMWKCAQETAWDFALPKQ
B2: Calcium uptake protein 1, mitochondrial (Homo sapiens), Q9BPX6 (parent)
chain: B1 chain
partner: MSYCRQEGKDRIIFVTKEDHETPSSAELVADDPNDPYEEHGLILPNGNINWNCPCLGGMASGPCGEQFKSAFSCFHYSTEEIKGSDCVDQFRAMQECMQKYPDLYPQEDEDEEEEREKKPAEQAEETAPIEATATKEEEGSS
B3: Mitochondrial intermembrane space import and assembly protein 40 (Homo sapiens), Q8N4Q1 (parent)
chain: B2 partner

The first assay covers variants of B1. As to conditions: with mcu_human MCU.
Turning to MFRLNSLSALAELAVGSRWYHGGSQPIQIRRRLMMVAFLGASAVTASTGLLWKRAHAESPPCVDNLKSDIGDKGKNKDEGDVCNHEKKTADLAPHPEEKKKKRSGFRDRKVMEYENRIRAYSTPDKIFRYFATLKVISEPGEAEVFMTPEDFVRSITPNEKQPEHLGLDQYIIKRFDGKKISQEREKFADEGSIFYTLGECGLISFSDYIFLTTVLSTPQRNFEIAFKMFDLNGDGEVDMEEFEQVQSIIRSQTSMGMRHRDRPTTGNTLKSGLCSALTTYFFGADLKGKLTIKNFLEFQRKLQHDVLKLEFERHDPVDGRITERQFGGMLLAYSGVQSKKLTAMQRQLKKHFKEGKGLTFQEVENFFTFLKNINDVDTALSFYHMAGASLDKVTMQQVARTVAKVELSDHVCDVVFALFDCDGNGELSNKEFVSIMKQRLMRGLEKPKDMGFTRLMQAMWKSAQETAWDFALPKQ [C463S], the “effect of a mutation on the interaction” value was “with no effect”.

In a further assay the parent is B2. The settings on record: with mia40_human CHCHD4, Q8N4Q1.
Consider MFRLNSLSALAELAVGSRWYHGGSQPIQIRRRLMMVAFLGASAVTASTGLLWKRAHAESPPCVDNLKSDIGDKGKNKDEGDVCNHEKKTADLAPHPEEKKKKRSGFRDRKVMEYENRIRAYSTPDKIFRYFATLKVISEPGEAEVFMTPEDFVRSITPNEKQPEHLGLDQYIIKRFDGKKISQEREKFADEGSIFYTLGECGLISFSDYIFLTTVLSTPQRNFEIAFKMFDLNGDGEVDMEEFEQVQSIIRSQTSMGMRHRDRPTTGNTLKSGLCSALTTYFFGADLKGKLTIKNFLEFQRKLQHDVLKLEFERHDPVDGRITERQFGGMLLAYSGVQSKKLTAMQRQLKKHFKEGKGLTFQEVENFFTFLKNINDVDTALSFYHMAGASLDKVTMQQVARTVAKVELSDHVCDVVFALFDCDGNGELSNKEFVSIMKQRLMRGLEKPKDMGFTRLMQAMWKAAQETAWDFALPKQ [C463A], for which the “effect of a mutation on the interaction” value was “disrupting interaction strength”.

Variants of B3 are the subject of a further assay. The settings on record: with micu1_human MICU1, Q9BPX6.
For MSYSRQEGKDRIIFVTKEDHETPSSAELVADDPNDPYEEHGLILPNGNINWNSPSLGGMASGPCGEQFKSAFSCFHYSTEEIKGSDCVDQFRAMQECMQKYPDLYPQEDEDEEEEREKKPAEQAEETAPIEATATKEEEGSS [C4S;C53S;C55S], the “effect of a mutation on the interaction” value is listed as “disrupting interaction strength”.
Still for that read-out and setting: the entry for MSYCRQEGKDRIIFVTKEDHETPSSAELVADDPNDPYEEHGLILPNGNINWNSPCLGGMASGPCGEQFKSAFSCFHYSTEEIKGSDCVDQFRAMQECMQKYPDLYPQEDEDEEEEREKKPAEQAEETAPIEATATKEEEGSS [C53S] is “with no effect”; for MSYCRQEGKDRIIFVTKEDHETPSSAELVADDPNDPYEEHGLILPNGNINWNCPSLGGMASGPCGEQFKSAFSCFHYSTEEIKGSDCVDQFRAMQECMQKYPDLYPQEDEDEEEEREKKPAEQAEETAPIEATATKEEEGSS [C55S] it is “disrupting interaction strength”.
